Laboratory results published in US20250034594A1, “RNA-GUIDED GENOME RECOMBINEERING AT KILOBASE SCALE” (THE BOARD OF TRUSTEES OF THE LELAND STANFORD JUNIOR …, priority 2021, published 2025).

B1: RecE: Escherichia coli RecE exonuclease; SEQ ID NO: 1 (protein, listed as Escherichia coli)
chain: MSTKPLFLLRKAKKSSGEPDVVLWASNDFESTCATLDYLIVKSGKKLSSYFKAVATNFPVVNDLPAEGEIDFTWSERYQLSKDSMTWELKPGAAPDNAHYQGNTNVNGEDMTEIEENMLLPISGQELPIRWLAQHGSEKPVTHVSRDGLQALHIARAEELPAVTALAVSHKTSLLDPLEIRELHKLVRDTDKVFPNPGNSNLGLITAFFEAYLNADYTDRGLLTKEWMKGNRVSHITRTASGANAGGGNLTDRGEGFVHDLTSLARDVATGVLARSMDLDIYNLHPAHAKRIEEIIAENKPPFSVFRDKFITMPGGLDYSRAIVVASVKEAPIGIEVIPAHVTEYLNKVLTETDHANPDPEIVDIACGRSSAPMPQRVTEEGKQDDEEKPQPSGTTAVEQGEAETMEPDATEHHQDTQPLDAQSQVNSVDAKYQELRAELHEARKNIPSKNPVDDDKLLAASRGEFVDGISDPNDPKWVKGIQTRDCVYQNQPETEKTSPDMNQPEPVVQQEPEIACNACGQTGGDNCPDCGAVMGDATYQETFDEESQVEAKENDPEEMEGAEHPHNENAGSDPHRDCSDETGEVADPVIVEDIEPGIYYGISNENYHAGPGISKSQLDDIADTPALYLWRKNAPVDTTKTKTLDLGTAFHCRVLEPEEFSNRFIVAPEFNRRTNAGKEEEKAFLMECASTGKTVITAEEGRKIELMYQSVMALPLGQWLVESAGHAESSIYWEDPETGILCRCRPDKIIPEFHWIMDVKTTADIQRFKTAYYDYRYHVQDAFYSDGYEAQFGVQPTFVFLVASTTIECGRYPVEIFMMGEEAKLAGQQEYHRNLRTLADCLNTDEWPAIKTLSLPRWAKEYAND
B2: EcRecE_587: Escherichia coli RecE truncated from AA587; SEQ ID NO: 2 (protein)
chain: ADPVIVEDIEPGIYYGISNENYHAGPGVSKSQLDDIADTPALYLWRKNAPVDTTKTKTLDLGTAFHCRVLEPEEFSNRFIVAPEFNRRTNSGKEEEKAFLRECASTGKTVITAEEGRKIELMYQSVMALPLGQWLVESAGHAESSIYWEDPETAILCRCRPDKIIPEFHWIMDVKTTADIQRFKTAYYDYRYHVQDAFYSDGYEAQFGVQPTFVFLVASTTIECGRYPVEIFMMGEEAKLAGQLEYHRNLRTLADCLNTDEWPAIKTLSLPRWAKEYAND
B3: RecE_CTD: carboxy terminus domain of E. coli RecE; SEQ ID NO: 3 (protein)
chain: GISNENYHAGPGVSKSQLDDIADTPALYLWRKNAPVDTTKTKTLDLGTAFHCRVLEPEEFSNRFIVAPEFNRRTNSGKEEEKAFLRECASTGKTVITAEEGRKIELMYQSVMALPLGQWLVESAGHAESSIYWEDPETAILCRCRPDKIIPEFHWIMDVKTTADIQRFKTAYYDYRYHVQDAFYSDGYEAQFGVQPTFVFLVASTTIECGRYPVEIFMMGEEAKLAGQLEYHRNLRTLADCLNTDEWPAIKTLSLPRWAKEYAND
B4: EcRecT: Escherichia coli RecT SSAP; SEQ ID NO: 171 (Tables 8, 9), SEQ ID NO: 9; positive control in Table 9 (protein)
chain: MTKQPPIAKADLQKTQGNRAPAAIKNNDVISFINQPSMKEQLAAALPRHMTAERMIRIATTEIRKVPALGNCDTMSFVSAIVQCSQLGLEPGSALGHAYLLPFGNKNEKSGKKNVQLIIGYRGMIDLARRSGQIASLSARVVREGDEFNFEFGLDEKLIHRPGENEDAPVTHVYAVARLKDGGTQFEVMTRKQIELVRSQSKAGNNGPWVTHWEEMAKKTAIRRLFKYLPVSIEIQRAVSMDEKEPLTIDPADSSVLTGEYSVIDNSEE

How the values were obtained:
[1] = test system: endogenous genomic loci (DYNLT1, HSP90AA1, AAVS1, ACTB) in HEK293T cells; experiment: Kilobase mKate knock-in assay in HEK293T cells (flow cytometry); type: cell-based, human; details: for activity in no-recruitment control: PCP no-recruitment control; for HDR / knock-in efficiency enhancement: five genomic sites (EMX1, VEGFA, HSP90AA1, DYNLT1, AAVS1), wtCas9; for knock-in editing activity with dCas9, comparison of SSAPs: dCas9, MS2-MCP
Method: Transfection HEK293T cells were seeded into 96-well plates (Corning) 12-24 hours prior to transfection at a density of 30,000 cells/well, and 250 ng of total DNA was transfected per well. HeLa and HepG2 cells were seeded into 48-well plates (Corning) one day prior to transfection at a density of 50,000 and 30,000 cells/well respectively, and 400 ng of total DNA was transfected per well. Transfections were performed with Lipofectamine 3000 (Life Technologies) following the manufacturer's instructions.
(§1) Fluorescence-activated cell sorting (FACS) mKate knock-in efficiency was analyzed on a CytoFLEX flow cytometer (Beckman Coulter; Stanford Stem Cell FACS Core). 72 hours after transfection, cells were washed once with PBS and dissociated with TrypLE Express Enzyme (Thermo Fisher Scientific). Cell suspension was then transferred to a 96-well U-bottom plate (Thermo Fisher Scientific) and centrifuged at 300×G for 5 minutes. After removing the supernatant, pelleted cells were resuspended with 50 μl 4% FBS in PBS, and cells were sorted within 30 minutes of preparation.
HEK293T, Hela, HepG2 and U2OS cells were seeded into 96-well plates (Corning) 12-24 hours prior to transfection at a density of 30,000 cells/well, and 250 ng of total DNA was transfected per well. Cells were transfected with Lipofectamine 3000 (Life Technologies) following the manufacturer's instructions when the cell are ˜70% confluence. In brief, we used 250 ng total DNA, 0.4 ul Lip3000 reagent, mixed with 10 ul of Opti-MEM per well. For the 250 ng DNA, we used 160 ng of dCas9-SSAP guide RNA plasmids (for double sgRNAd design, use equal amount of the two guide RNA plasmids, e.g., 80 ng each), 60 ng of pMCP-RecT or GFP control plasmid (addgene #64539) and 30 ng of PCR template DNA (the PCR primer could be found in Table 7, the template sequence could be found in Supplementary Sequences). Three days later, the cells were analyzed using FACS.
as §1, with “mKate” for “Fluorescence-activated cell sorting (FACS) mKate”, “transfection or 96 hours after electroporation,” for “transfection,”, “twice” for “once”, “300 g” for “300×G”, “analyzed” for “sorted”, “after” for “of”

DYNLT1 locus = experiment: mKate knock-in gene-editing assay, RecE/RecT homologs, DYNLT1 locus; type: cell-based, human; details: HEK293 cells, MCP fusion, n=3
Procedure, shortened: (§2)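 RecE/RecT homologs from 15 microbial species, codon-optimized and each fused via E-XTEN linker to MCP with NLS, tested for mKate knock-in. Cells transfected by Lipofectamine 3000 (HEK293T 250 ng DNA/well; HeLa, HepG2 400 ng); knock-in efficiency measured by flow cytometry 72 h post-transfection.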

HSP90AA1 locus = experiment: mKate knock-in gene-editing assay, RecE/RecT homologs, HSP90AA1 locus; type: cell-based, human; details: HEK293 cells, MCP fusion, n=3
Procedure, shortened: as §2

[2] = test system: endogenous genome targets (ACTB, HSP90AA1); experiment: Arrayed SSAP library screening, mKate knock-in assay (editing efficiency); type: cell-based; details: average of HSP90 and ACTB, 3 days after transfection
Procedure, shortened: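 Mammalian cells in duplicate were transfected with SSAP-encoding plasmids, with about 50% transfection efficiency. mKate knock-in positive cells and viability, by flow-cytometric live counts, were quantified three days later. RecT SSAP served as positive control and Flag-HA plasmid as negative control.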

mammalian cells = experiment: Arrayed SSAP library screening, cell viability by live cell counts via flow cytometry; type: cell-based
Procedure, shortened: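 Each SSAP plasmid transfected in duplicate (~50% efficiency), with RecT SSAP as positive and Flag-HA as negative control. After three days, mKate-positive cells and viability by flow-cytometric live cell counts were quantified to gauge SSAP fitness effects.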

| Molecule | activity in no-recruitment control [1] | Mean mKate+ (%), DYNLT1 (DYNLT1 locus) [%] | Mean mKate+ (%), HSP90AA1 (HSP90AA1 locus) [%] | HDR / knock-in efficiency enhancement [1] | Editing Efficiency (Normalized, Average, two targets) ([2]; fold over negative control (Flag_HA)) | Editing Efficiency (Absolute, Average, two targets) ([2]; percent of mKate knock-in) | Cell Viability (Average, two targets) (mammalian cells) | genomic knock-in efficiency of kilobase cassette, dCas9 editing ([1]; SSAP candidate screen, HSP90AA1, DYNLT1, ACTB, human cells) [%] | knock-in editing activity with dCas9, comparison of SSAPs ([1]; human cells) | knock-in editing activity with dCas9, comparison of SSAPs ([1]; human cells, listed as RecT) | HDR efficiency for kb-scale knock-in ([1]; template bearing 600-800 bp total HA, without selection) |
| --- | --- | --- | --- | --- | --- | --- | --- | --- | --- | --- | --- |
| B1 | had activities without recruitment |  |  |  |  |  |  |  |  |  |  |
| B2 |  | 5.1767 | 3.7067 | variable increases in knock-in efficiency |  |  |  |  |  |  |  |
| B3 |  |  |  | variable increases in knock-in efficiency |  |  |  |  |  |  |  |
| B4 | efficiency increases in a recruitment-dependent manner | 9.9467 | 6.5467 | significantly enhanced HDR in all cases | 3.807 | 9.4225 | 0.8651 | ≤ 6 | highest efficiency for dCas9 editing | higher knock-in editing activities relative to other SSAPs | over 10% |
